Tests used:
Assay type in all cases: biochemical
[1] = Hydroxylation of diclofenac catalysed by cytochrome P450 aluC09 and mutants (UPLC-PDA-MS); conditions: for 4′,5-dihydroxy-diclofenac 1.38 mins / 4′-hydroxy-diclofenac (1) 1.62 mins / 5-hydroxy-diclofenac (2) 1.58 mins / Diclofenac (Substrate) 1.81 mins: % by UV peak area at 275 nm, 0.125 mg/ml substrate, 27° C., 16-20 hours; for Hydroxylated Ratio hydroxy 1:hydroxy 2: ratio of UV peak areas at 275nm
Method: (§1) Lyophilised material of mutants of CYP450aluC09, ferredoxinaluF03 and ferredoxin reductaseSCF15A was made as described in examples 3 and 4 and suspended in water (0.5 mL per vial) and biocatalysis was performed at 27° C. in the following conditions: 50 mM potassium phosphate pH 7.4, 5 mM MgCl2, 0.125 mg/ml substrate compound such as diclofenac (Sigma-Aldrich, UK), Aceclofenac (Tokyo Chemical Industry UK Ltd, UK), Indomethacin (Sigma-Aldrich, UK), Flufenamic acid (Sigma-Aldrich, UK), Napropamide (Sigma-Aldrich, UK), celecoxib (LC Laboratories, USA), valsartan (Tokyo Chemical Industry UK Ltd, UK), ruxolitinib (LC Laboratories, USA), 4-pyrrolidylacetophenone (Sigma-Aldrich, UK), tofacitinib (LC Laboratories, USA), bosentan (CarboSynth Ltd, UK), buparvaquone (MedChemtronica, Sweden), BIRB796 (Stratech Scientific Limited, UK), epothilone B (LC Laboratories, USA), ritonavir (Tokyo Chemical Industry UK Ltd, UK) or tivantinib (MedChemtronica, Sweden), P450AluC09 (concentration as in Table 8), 5 mM G6P, 1 mM NADP, 2 UN/ml G6PDH in a final volume of 100 μL. After 16-20 hours at 200 rpm (5 cm orbital shaker, Kuhner AG, Switzerland), reactions were extracted with an equal volume of acetonitrile, centrifuged to remove precipitated proteins and conversion assessed by UPLC-MS analysis.
(§2) UPLC data was obtained as follows:
(§3) Column: Acquity UPLC BEH Shield RP18 1.7 μm 2.1 mm i.d. 50 mm length
(§4) Solvents: H2O, B: Acetonitrile, both with 0.1% Formic acid
(§5) Detector: Waters Acquity UPLC PDA (UV-Vis detection) and Waters Acquity UPLC QDA (MS)
Illustrative results for the hydroxylation of diclofenac by CYP450aluC09 and selected T291x mutants are summarised below in Table 3 with representative chromatograms resented in FIG. 3a-c; retention times: diclofenac 1.85-1.88 minutes, 5-hydroxydiclofenac 1.60-1.63 minutes, 4′-hydroxydiclofenac 1.65-1.68 minutes, 4′,5-dihydroxydiclofenac 1.40-1.42 minutes. The chromatographic retention times and mass spectra coincided with those of authentic samples.

[2] = Hydroxylation of flufenamic acid catalysed by cytochrome P450 aluC09 and mutants; conditions: for Flufenamic Acid (Substrate) 1.93 mins / Hydroxy-Flufenamic Acid (1) 1.69 mins / Hydroxy-Flufenamic Acid (2) 1.65 mins: % by UV peak area at 275 nm, 0.125 mg/ml substrate, 27° C., 16-20 hours; for Hydroxylated Ratio 1:2: flufenamic acid, ratio of UV peak areas at 275 nm
Method: as §1, §2, §3, §4, §5
Flufenamic acid elutes at 1.93 minutes, hydroxy-flufenamic acid 1 elutes at 1.68 minutes and hydroxy-flufenamic acid 2 elutes at 1.65 minutes.

[3] = Hydroxylation of aceclofenac catalysed by cytochrome P450 aluC09 and mutants; conditions: for Aceclofenac (Substrate) (1.80 mins) / Dihydroxy-Aceclofenac (1.42 mins) / Hydroxy-Aceclofenac (1) (1.64 min) / Hydroxy-Aceclofenac (2) (1.60 min): % by UV peak area at 275 nm, 0.125 mg/ml substrate, 27° C., 16-20 hours; for Hydroxylated Ratio 2:1: aceclofenac, ratio of UV peak areas at 275 nm
Method: as §1, §2, §3, §4, §5
Chromatograms are provided in FIGS. 5a-c; aceclofenac elutes at 1.80 minutes, hydroxy-aceclofenac acid 1 elutes at 1.64 minutes, hydroxy-aceclofenac acid 2 elutes at 1.60 minutes and dihydroxy-aceclofenac elutes at 1.42 minutes.

[4] = O-demethylation of indomethacin catalysed by cytochrome P450 aluC09 and mutants; conditions: % by UV peak area at 275 nm; 0.125 mg/ml substrate, 27° C., 16-20 hours
Method: as §1, §2, §3, §4, §5

[5] = Metabolism of ritonavir by P450 aluC09 and mutants; conditions: percent of substrate being converted; 0.125 mg/ml, 27° C., 16-20 hours; [CYP] per enzyme as in Table 8
Method: as §1
(§6) However, of particular note when considering P450 concentration are the results for mutants M12, M20 and M34, as well as the deleterious impact on the range of substrate utility in mutants M39 and M40.

[6] = Metabolism of celecoxib by P450 aluC09 and mutants; conditions: percent of substrate being converted; 0.125 mg/ml, 27° C., 16-20 hours; [CYP] per enzyme as in Table 8
Method: as §1, §6

[7] = Metabolism of epothilone B by P450 aluC09 and mutants; conditions: percent of substrate being converted; 0.125 mg/ml, 27° C., 16-20 hours; [CYP] per enzyme as in Table 8
Method: as §1, §6

[8] = Metabolism of BIRB796 by P450 aluC09 and mutants; conditions: percent of substrate being converted; 0.125 mg/ml, 27° C., 16-20 hours; [CYP] per enzyme as in Table 8
Method: as §1, §6

[9] = Metabolism of bosentan by P450 aluC09 and mutants; conditions: percent of substrate being converted; 0.125 mg/ml, 27° C., 16-20 hours; [CYP] per enzyme as in Table 8
Method: as §1, §6

[10] = Metabolism of valsartan by P450 aluC09 and mutants; conditions: percent of substrate being converted; 0.125 mg/ml, 27° C., 16-20 hours; [CYP] per enzyme as in Table 8
Method: as §1, §6

[11] = Metabolism of ruxolitinib by P450 aluC09 and mutants; conditions: percent of substrate being converted; 0.125 mg/ml, 27° C., 16-20 hours; [CYP] per enzyme as in Table 8
Method: as §1, §6

[12] = Metabolism of 4-pyrrolidylacetophenone by P450 aluC09 and mutants; conditions: percent of substrate being converted; 0.125 mg/ml, 27° C., 16-20 hours; [CYP] per enzyme as in Table 8
Method: as §1, §6

[13] = Metabolism of tivantinib by P450 aluC09 and mutants; conditions: percent of substrate being converted; 0.125 mg/ml, 27° C., 16-20 hours; [CYP] per enzyme as in Table 8
Method: as §1, §6

[14] = Metabolism of tofacitinib by P450 aluC09 and mutants; conditions: percent of substrate being converted; 0.125 mg/ml, 27° C., 16-20 hours; [CYP] per enzyme as in Table 8
Method: as §1, §6

[15] = Hydroxylation / de-N-ethylation of napropamide catalysed by cytochrome P450 aluC09 and mutants
Method: as §1, §2, §3, §4, §5
Napropamide elutes at 1.76 minutes, unidentified metabolite (−2 Da) elutes at 1.90 minutes, desethyl-napropamide elutes at 1.62 minutes, hydroxy-napropamide 1 elutes at 1.53 minutes and hydroxy-napropamide 2 elutes at 1.52 minutes and the desethyl-hydroxy-napropamide product elutes at 1.41 minutes.

[16] = % by UV peak area at 275 nm, 0.125 mg/ml substrate, 27° C., 16-20 hours

Row | Molecule | 4′,5-dihydroxy-diclofenac 1.38 mins [1] | 4′-hydroxy-diclofenac (1) 1.62 mins [1] | 5-hydroxy-diclofenac (2) 1.58 mins [1] | Diclofenac (Substrate) 1.81 mins [1] | Hydroxylated Ratio hydroxy 1:hydroxy 2 ([1]; diclofenac) | Flufenamic Acid (Substrate) 1.93 mins [2] | Hydroxy-Flufenamic Acid (1) 1.69 mins [2] | Hydroxy-Flufenamic Acid (2) 1.65 mins [2] | Hydroxylated Ratio 1:2 [2] | Aceclofenac (Substrate) (1.80 mins) [3] | Dihydroxy-Aceclofenac (1.42 mins) [3] | % conversions (avg) Ritonavir [5] | % conversions (avg) Celecoxib [6] | % conversions (avg) Epothilone B [7] | % conversions (avg) Bosentan [9] | % conversions (avg) Valsartan [10] | % conversions (avg) Ruxolitinib [11] | % conversions (avg) 4-pyrrolidylacetophenone [12] | % conversions (avg) Tivantinib [13] | % conversions (avg) Tofacitinib [14] | further results
1 | aluC09M24: cytochrome P450 aluC09 double mutant T291E, A47I; amino acid sequence SEQ ID NO: 84 (protein, listed as Amycolatopsis lurida) MTDVEETTATLPLARKCPFSPPPEYERLRRESPVSRVGLPSGQTAWILTRLEDIREMLSSPHFSSDRQSPSFPLMVARQIRREDKPFRPSLIAMDPPEHSRARRDVVGEFTVKRMKALQPRIQQIVDEHLDALLAGPKPADLVQALSLPVPSLVICELLGVPYSDHEFFQSCSSRMLSREVTAEERMTAFEQLENYLDELVTKKEANATEDDLLGRQILKQRETGEADHGELVGLAFLLLIAGHETTANMISLGTVTLLENPDQLAKIKADPGKTLAAIEELLRVFTIAEEATSRFATADVEIGGTLIRAGEGVVGLSNAGNHDPDGFENPDTFDIERGARHHVAFGFGVHQCLGQNLARLELQIVFDTLFRRVPGLRIAVPVDELPFKHDSTIYGLHALPVTW | 1.8% | 34.2% | 8.0% | 57.0% | 4.3 | 89.2% | 7.7% | 3.1% | 2.5 | 63.4% | 5.0% | 30.4% | 3.6% | 52.3% | 100% | 21.2% | 37.7% | 7.6% | 6.8% | 0% | regioselectivity of hydroxylation (product ratio 4′-hydroxydiclofenac : 5-hydroxydiclofenac) ([1]; diclofenac): over four-fold; Hydroxy-Aceclofenac (1) (1.64 min) [3]: 14.3%; Hydroxy-Aceclofenac (2) (1.60 min) [3]: 17.4%; Hydroxylated Ratio 2:1 [3]: 1.2; Indomethacin (1.74 mins) [4]: 94.2%; O-demethyl-Indomethacin (1.52 mins) [4]: 5.8%; % conversions (avg) BIRB796 [8]: 18.9%
2 | aluC09M18: cytochrome P450 aluC09 mutant T291Q; amino acid sequence SEQ ID NO: 20 (protein, listed as Amycolatopsis lurida) MTDVEETTATLPLARKCPFSPPPEYERLRRESPVSRVGLPSGQTAWALTRLEDIREMLSSPHFSSDRQSPSFPLMVARQIRREDKPFRPSLIAMDPPEHSRARRDVVGEFTVKRMKALQPRIQQIVDEHLDALLAGPKPADLVQALSLPVPSLVICELLGVPYSDHEFFQSCSSRMLSREVTAEERMTAFEQLENYLDELVTKKEANATEDDLLGRQILKQRETGEADHGELVGLAFLLLIAGHETTANMISLGTVTLLENPDQLAKIKADPGKTLAAIEELLRVFTIAEQATSRFATADVEIGGTLIRAGEGVVGLSNAGNHDPDGFENPDTFDIERGARHHVAFGFGVHQCLGQNLARLELQIVFDTLFRRVPGLRIAVPVDELPFKHDSTIYGLHALPVTW | 1.9% | 45.5% | 12.3% | 41.6% | 3.7 | 86.1% | 9.1% | 4.8% | 1.9 | 10.2% | 49.1% | 53.3% | 3.7% | 24.8% | 100% | 27.1% | 38.5% | 14.1% | 59.7% | 2.2% | Hydroxy-Aceclofenac (1) (1.64 min) [3]: 5.9%; Hydroxy-Aceclofenac (2) (1.60 min) [3]: 34.9%; Hydroxylated Ratio 2:1 [3]: 5.9; Desethyl Napropamide (1.62 min) [15, 16]: 49.5%; Desethyl-hydroxy-Napropamide (1.41 min) [15, 16]: 4.1%; Hydroxy-Napropamide (1) (1.53 min) [15, 16]: 1.4%; Hydroxy-Napropamide (2), (1.52 min) [15, 16]: 2.5%; M-2Da (unidentified) (1.89 min) [15, 16]: 5.7%; Napropamide (substrate) [15, 16]: 38.3%; Hydroxylated Ratio 2:1 ([15]; napropamide, ratio of UV peak areas): 1.8; Indomethacin (1.74 mins) [4]: 83.6%; O-demethyl-Indomethacin (1.52 mins) [4]: 16.4%; % conversions (avg) BIRB796 [8]: 24.3%
3 | aluC09M21: cytochrome P450 aluC09 mutant T291Y; amino acid sequence SEQ ID NO: 32 (protein, listed as Amycolatopsis lurida) MTDVEETTATLPLARKCPFSPPPEYERLRRESPVSRVGLPSGQTAWALTRLEDIREMLSSPHFSSDRQSPSFPLMVARQIRREDKPFRPSLIAMDPPEHSRARRDVVGEFTVKRMKALQPRIQQIVDEHLDALLAGPKPADLVQALSLPVPSLVICELLGVPYSDHEFFQSCSSRMLSREVTAEERMTAFEQLENYLDELVTKKEANATEDDLLGRQILKQRETGEADHGELVGLAFLLLIAGHETTANMISLGTVTLLENPDQLAKIKADPGKTLAAIEELLRVFTIAEYATSRFATADVEIGGTLIRAGEGVVGLSNAGNHDPDGFENPDTFDIERGARHHVAFGFGVHQCLGQNLARLELQIVFDTLFRRVPGLRIAVPVDELPFKHDSTIYGLHALPVTW | – | – | – | – | – | – | – | – | – | – | – | 28.2% | 1% | 33.8% | 59% | 19% | 19% | 15.8% | 29.6% | 2.7% | –
4 | aluC09M30: cytochrome P450 aluC09 double mutant T291E, V315L; amino acid sequence SEQ ID NO: 108 (protein, listed as Amycolatopsis lurida) MTDVEETTATLPLARKCPFSPPPEYERLRRESPVSRVGLPSGQTAWALTRLEDIREMLSSPHFSSDRQSPSFPLMVARQIRREDKPFRPSLIAMDPPEHSRARRDVVGEFTVKRMKALQPRIQQIVDEHLDALLAGPKPADLVQALSLPVPSLVICELLGVPYSDHEFFQSCSSRMLSREVTAEERMTAFEQLENYLDELVTKKEANATEDDLLGRQILKQRETGEADHGELVGLAFLLLIAGHETTANMISLGTVTLLENPDQLAKIKADPGKTLAAIEELLRVFTIAEEATSRFATADVEIGGTLIRAGEGVLGLSNAGNHDPDGFENPDTFDIERGARHHVAFGFGVHQCLGQNLARLELQIVFDTLFRRVPGLRIAVPVDELPFKHDSTIYGLHALPVTW | 3.6% | 43.4% | 13.0% | 41.6% | 3.3 | 93.8% | 3.7% | 2.4% | 1.5 | 24.1% | 18.4% | 20.9% | 3.9% | 32.2% | 80.4% | 20% | 37.5% | 16.6% | 2.7% | 0% | Hydroxy-Aceclofenac (1) (1.64 min) [3]: 15.0%; Hydroxy-Aceclofenac (2) (1.60 min) [3]: 42.5%; Hydroxylated Ratio 2:1 [3]: 2.8; Indomethacin (1.74 mins) [4]: 90.1%; O-demethyl-Indomethacin (1.52 mins) [4]: 9.9%; % conversions (avg) BIRB796 [8]: 18%

— US11618906B2, “Hydroxylation techniques” (HYPHA DISCOVERY LTD., priority 2018, dated 2023)
